Source: paper doi:10.1101/2021.07.29.454387 (bioRxiv, 2021)

What was measured:
Assay in all cases: ITC
[1] = biological target: PDLIM7 PDZ domain (1-84) H63A (human, UniProt Q9NR12 1-84, H63A)
[2] = biological target: PDZ domain of human PDLIM7 (residues 1-84) (human, UniProt Q9NR12 1-84)
[3] = biological target: PDLIM7 PDZ domain (1-84) Q67A (human, UniProt Q9NR12 1-84, Q67A)
[4] = biological target: T1, PDZ domain of human PDLIM4 (residues 1-84) (human, UniProt P50479 1-84)
T1 sequence: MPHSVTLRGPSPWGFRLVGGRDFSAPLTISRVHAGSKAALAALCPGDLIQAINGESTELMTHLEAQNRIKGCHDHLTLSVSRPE

[5] = biological target: PDLIM7 PDZ domain (1-84) W14Y (human, UniProt Q9NR12 1-84, W14Y)
PDLIM7 PDZ domain (1-84) W14Y, sequence (Q9NR12 1-84 W14Y): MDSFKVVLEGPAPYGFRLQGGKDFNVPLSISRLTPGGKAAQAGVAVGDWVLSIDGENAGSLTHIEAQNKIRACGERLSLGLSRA

[6] = biological target: T2, PDZ domain of human PDLIM1 (residues 1-84) (human, UniProt O00151 1-84)
T2 sequence: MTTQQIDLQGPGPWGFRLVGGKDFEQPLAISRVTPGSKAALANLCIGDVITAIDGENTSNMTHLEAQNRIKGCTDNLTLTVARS

[7] = biological target: PDLIM7 PDZ domain (1-84) P11E (human, UniProt Q9NR12 1-84, P11E)
PDLIM7 PDZ domain (1-84) P11E, sequence (Q9NR12 1-84 P11E): as the sequence (Q9NR12 1-84 W14Y) above, with P11E, Y14W counted along it

[8] = biological target: T3, PDZ domain of human PDLIM3 (residues 1-84) (human, UniProt Q53GG5 1-84)
T3 sequence: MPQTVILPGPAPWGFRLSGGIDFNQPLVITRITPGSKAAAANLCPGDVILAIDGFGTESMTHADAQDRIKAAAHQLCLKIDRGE

[9] = biological target: T4, PDZ domain of human PDLIM2 (residues 1-84) (human, UniProt Q96JY6 1-84)
T4 sequence: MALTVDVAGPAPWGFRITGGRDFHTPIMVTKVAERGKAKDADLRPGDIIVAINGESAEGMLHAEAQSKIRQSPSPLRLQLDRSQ

[10] = biological target: T5, PDZ domain of human PDLIM5 (residues 1-84) (human, UniProt Q96HC4 1-84)
T5 sequence: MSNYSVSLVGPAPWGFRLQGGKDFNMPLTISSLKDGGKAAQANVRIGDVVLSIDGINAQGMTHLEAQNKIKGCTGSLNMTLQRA

Measured: binding result

PDZ domain of human PDLIM7 (residues 1-84), sequence (Q9NR12 1-84): as the sequence (Q9NR12 1-84 W14Y) above, with Y14W counted along it
PDLIM7 PDZ domain (1-84) Q67A, sequence (Q9NR12 1-84 Q67A): as the sequence (Q9NR12 1-84 W14Y) above, with Y14W, Q67A counted along it
PDLIM7 PDZ domain (1-84) H63A, sequence (Q9NR12 1-84 H63A): as the sequence (Q9NR12 1-84 W14Y) above, with Y14W, H63A counted along it

HGNFAFEGIGDEDL [SNX17 C-terminal peptide (457-470) used for ITC]
binds: all assays above

HGNFAFEGIGDRDL [SNX17 C-terminal peptide E468R]
binds: [2]
